doi:10.1101/2022.03.14.484294 (bioRxiv, 2022)

Molecular target: Recombinant human Rac1 (Q2-L177), His-tagged (human, UniProt P63000 2-177)
Test: AlphaScreen or HTRF

binding result: binds
B1: Truncated recombinant human Tiam1 (R1033-E1406), FLAG-tagged (domain or fragment)
chain: RQLSDADKLRKVICELLETERTYVKDLNCLMERYLKPLQKETFLTQDELDVLFGNLTEMVEFQVEFLKTLEDGVRLVPDLEKLEKVDQFKKVLFSLGGSFLYYADRFKLYSAFCASHTKVPKVLVKAKTDTAFKAFLDAQNPKQQHSSTLESYLIKPIQRILKYPLLLRELFALTDAESEEHYHLDVAIKTMNKVASHINEMQKIHEEFGAVFDQLIAEQTGEKKEVADLSMGDLLLHTTVIWLNPPASLGKWKKEPELAAFVFKTAVVLVYKDGSKQKKKLVGSHRLSIYEDWDPFRFRHMIPTEALQVRALASADAEANAVCEIVHVKSESEGRPERVFHLCCSSPESRKDFLKAVHSILRDKHRRQLLKTE
